Tested on: nsp1β;PCBP2 (PRRSV (SD01-08)?;human)
Assay: EMSA
Conditions: EMSA: 10 mM Hepes pH 7.6, 150 mM KCl, 2 mM MgCl2, 1 mM DTT, 0.5 mM ATP, 5% glycerol, 100 µg/ml porcine tRNA, RNase inhibitor; 10 nM RNA; 30°C 10 min (room …)

Q: With PRRSV -2/-1 PRF RNA wt (58 nt) as the substance, how does the Kd read?
A: The Kd was 130 nM.

Source: PMC4937337
